The values below come from publication PMC10725331.

Among the targets are GFP-TRKB/TRKA.TM (rat) (UniProt Q63604); GFP-TRKB.Tyr433Phe (rat) (UniProt Q63604); GFP-TRKB.wt (rat) (UniProt Q63604).
What all share (test): direct binding assay (cell-free, plate-based luminescence); GFP-TRKB from 120 ug HEK293T lysate captured on anti-GFP coated 96-well plate; biotinylated BDNF 0.1-100 pM added for 1 h at RT in PBS; HRP-streptavidin and ECL; blank wells subtracted

On to “biotinylated BDNF (brain-derived neurotrophic factor) (ligand)”, for which the figures for the equilibrium dissociation constant (Kd) with GFP-TRKB/TRKA.TM (rat), with GFP-TRKB.Tyr433Phe (rat) and with GFP-TRKB.wt (rat) were 0.387 pM, 0.438 pM and 0.39 pM, respectively.
